# Data published in patent US5840683A, “Peptides inhibiting the oncogenic action of p21 ras” (Innapharma, Inc., dated 1998).
# T1: human oncogenic ras p21 (human)
# T1 chain: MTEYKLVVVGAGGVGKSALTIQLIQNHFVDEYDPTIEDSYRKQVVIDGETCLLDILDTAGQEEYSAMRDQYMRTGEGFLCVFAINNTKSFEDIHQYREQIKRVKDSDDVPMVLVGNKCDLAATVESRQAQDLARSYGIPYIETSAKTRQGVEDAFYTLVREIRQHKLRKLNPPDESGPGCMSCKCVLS
# Target: T1, human oncogenic ras p21
# Assay: cell-based or functional assay
# Settings: not given
row,Molecule,Present Inhibition of ras-Induced Maturation [%]
1,"IKRVKD [peptide of SEQ ID NO:1, Ile-Lys-Arg-Val-Lys-Asp]",76
2,KRV [Lys-Arg-Val],22
3,VVI [Val-Val-Ile],34

# Other lines, results leading:
row,Present Inhibition of ras-Induced Maturation [%],Molecule
1,65,"CDLAART [peptide of SEQ ID NO:9, Cys-Asp-Leu-Ala-Ala-Arg-Thr]"
2,92,"GNKCDLAARTVE [peptide of SEQ ID NO:8, Gly-Asn-Lys-Cys-Asp-Leu-Ala-Ala-Arg-Thr-Val-Glu]"
3,38,"KCDLA [peptide of SEQ ID NO:2, Lys-Cys-Asp-Leu-Ala]"
4,22,"DLAA [peptide of SEQ ID NO:4, Asp-Leu-Ala-Ala]"
5,28,"TIEDSYRKQVVID [peptide of SEQ ID NO:6, Thr-Ile-Glu-Asp-Ser-Tyr-Arg-Lys-Gln-Val-Val-Ile-Asp]"
6,56,"YREQIKRVKDSDDVP [peptide of SEQ ID NO:7, Tyr-Arg-Glu-Gln-Ile-Lys-Arg-Val-Lys-Asp-Ser-Asp-Asp-Val-Pro]"

# Test system: oncogenic ras-p-21
# Assay: not given
# Settings: background statement; cited from earlier work
row,Molecule,inhibition of oncogenic ras-p-21
1,N[C@@H](Cc1ccc(O)cn1)C(=O)O [Azatyrosine],strongly inhibits
